Literature values in article PMC3897602 (PLoS ONE, 2014).

Conditions: in vivo, po

## biotinylation of exendin-4: biotinylated exendin-4 reported by Jin et al
  apparent bioavailability: 3.95%
